The values below come from US20190336589A1 (published 2019).

Test [1] has as its target T1, Hen egg lysozyme (HEL) peptide on I-A^k (mouse).
T1 peptide: DGSTDYGILQINSR
The experiment in a line: binding, other.

Test [2] addresses Hen egg lysozyme (HEL) peptide on I-A^k (mouse). The experiment in a line: binding, other. This is another data set of the same source.
Target sequence in this assay (peptide, as listed by the source): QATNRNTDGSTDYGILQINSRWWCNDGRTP
The target in test [3] is T2, PLP (myelin proteolipid protein) peptide on I-A^s (mouse, 3rd amino acid from the N terminus substituted from cysteine to serine; contains the serine-substituted epitope of SEQ ID NO: 20).
T2 peptide: RVSHSLGKWLGHPDKF
The test can be described thus: activation reporter or marker. The protocol:
The cultured cells were collected, and the 2E5 reporter T cells were stained with an APC-labeled anti-CD45 antibody (clone name: 30-F11, eBioscience). Then, the stained 2E5 reporter cells were analyzed by flow cytometry so as to determine the proportion of the GFP-positive cells in the CD45-positive cells. As Control 1, the proportion of the GFP-positive cells in the CD45-positive cells was analyzed in the same manner, except that the above-described medium was added instead of the IgG antibody.

B1: 3A9 TCR (TCR, V domains shown)
Valpha: AQSVTQPDARVTVSEGASLQLRCKYSYSGTPYLFWYVQYPRQGLQLLLKYYSGDPVVQGVNGFEAEFSKSNSSFHLRKASVHWSDSAVYFCALNSGGSNAKLAFGKGSKLSVKS
Vbeta: AVTQSPRNKVAVTGGKVTLSCNQTNNHNNMYWYRQDTGHGLRLIHYSYGAGSTEKGDIPDGYKASRPSQENFSLILELATPSQTSVYFCASGDESALPELYFGEGSKLTVL
Consider B1, for which the binding result in test [1] and in test [2] was “recognises” in each case.

B2: 2E5 TCR (TCR, V domains shown)
Valpha: GEKVEQHQSTLSVREGDSAVINCTYTDTASSYFPWYKQEAGKSLHFVIDIRSNVDRKQSQRLTVLLDKKAKRFSLHITATQPEDSAIYFCAASPGANTGKLTFGHGTILRVHP
Vbeta: VAGVTQTPRYLVKEEGQKAHMSCSPEKGHTAFYWYQQNQKQELTFLINFRNEEIMEQTDLVKKRFSAKCSSNSQCILEILSSEEDDSALYLCASSLVRGNSDYTFGSGTRLLVI
On to B2, for which the binding result in test [3] is “recognises”.
